Source: paper PMC4162156

Target: β-PrP^23–231 (full-length recombinant mouse PrP residues 23–231 refolded to the β-sheet conformation) (mouse) (UniProt P04925)
Test: AUC

**Q.** Which results are given for “β-PrP^23–231 (full-length recombinant mouse PrP residues 23–231 refolded to the β-sheet conformation) (from UniProt P04925 23-231) (natural protein)”?
**A.** percentage occupancy of sample (oligomer): 61%; stoichiometry N (monomer subunits): 12
